Results from FireProtDB (doi:10.1093/protein/14.12.967).
“And” between values parts separate entries of the source, which are not always exact repeats. Identical values can stand only once.

Settings: Canis lupus familiaris, Thermal, DSC, reversible: yes, whole UniProt chain shown
[1] = pH 1.95, glycine hydrochloride 50 mM, transition: 3
[2] = pH 4.5, 66.4 °C, sodium acetate 50 mM

B1: Lysozyme C, milk isozyme wild type, P81708 (protein)
chain: KIFSKCELARKLKSMGMDGFHGYSLANWVCMAEYESNFNTQAFNGRNSNGSSDYGIFQLNSKWWCKSNSHSSANACNIMCSKFLDDNIDDDIACAKRVVKDPNGMSAWVAWVKHCKGKDLSKYLASCNL
[1]
  Tm: 60 °C
  unfolding enthalpy (calorimetric): 29.6 kcal/mol
pH 2.74, glycine hydrochloride 50 mM, transition: 3
  unfolding enthalpy (calorimetric): 21.3 kcal/mol and 37.8 kcal/mol
pH 3, glycine hydrochloride 50 mM, transition: 3
  unfolding enthalpy (calorimetric): 31.8 kcal/mol and 36.9 kcal/mol
pH 3.24, glycine hydrochloride 50 mM, transition: 3
  unfolding enthalpy (calorimetric): 35.6 kcal/mol and 43 kcal/mol
pH 3.46, glycine hydrochloride 50 mM, transition: 3
  unfolding enthalpy (calorimetric): 37.7 kcal/mol and 42 kcal/mol
[2]
  unfolding enthalpy (calorimetric): 30.9 kcal/mol
  unfolding free energy: 2.15 kcal/mol
pH 4.5, sodium acetate 50 mM, CaCl2 10 mM, transition: 3
  unfolding enthalpy (calorimetric): 67.4 kcal/mol and 44.4 kcal/mol
pH 4.5, sodium acetate 50 mM, transition: 3
  unfolding enthalpy (calorimetric): 42.1 kcal/mol and 44.4 kcal/mol
